Assays:
[1] = molecular target: Ad5 hexon capsid protein with DogTag inserted into the HVR5 loop, on Ad5 virions (Ad5-HVR5-DogTag) (human adenovirus serotype 5 (Ad5)) (UniProt P04133)
[2] = molecular target: Ad5 hexon capsid protein with DogTag inserted into the HVR5 loop, on Ad5 virions (Ad5-HVR5-DogTag) (human adenovirus serotype 5 (Ad5)) (UniProt P04133); remark: listed apart in the source

## DogCatcher fused to SARS CoV-2 Spike receptor binding domain (Wuhan strain, residues 319-532) (from UniProt P0DTC2 319-532)
[1]
  coupling efficiency (% total hexon protein coupled): 64%

## DogCatcher fused to the receptor binding domain of haemagglutinin (HA) from Influenza A (H1 A/Califo
[2]
  coupling efficiency (% hexon coupled): 44%
